T1: soluble mouse S-GPIHBP1 (acidic stretch and adjacent tyrosines replaced with an S-protein tag) (mouse, UniProt Q9D1N2 23-198, residues 32 to 48 replaced with the S-protein tag (KETAAAKFERQHMDS))
T1 sequence: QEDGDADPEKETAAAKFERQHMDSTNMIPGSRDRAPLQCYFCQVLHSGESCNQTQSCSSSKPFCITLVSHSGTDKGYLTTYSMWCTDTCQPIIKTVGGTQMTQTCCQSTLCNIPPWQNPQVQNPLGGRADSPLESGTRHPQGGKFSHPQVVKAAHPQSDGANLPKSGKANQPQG

T2: mouse lipoprotein lipase (LPL), recombinant, purified (mouse, UniProt P11152 28-474)
T2 construct: lipoprotein lipase, mouse; expressed in Drosophila S2 cells; also called mouse LPL; purified mouse LPL; source: Drosophila S2 cells, purified to homogeneity by heparin-Sepharose chromatography
T2 sequence (looked up): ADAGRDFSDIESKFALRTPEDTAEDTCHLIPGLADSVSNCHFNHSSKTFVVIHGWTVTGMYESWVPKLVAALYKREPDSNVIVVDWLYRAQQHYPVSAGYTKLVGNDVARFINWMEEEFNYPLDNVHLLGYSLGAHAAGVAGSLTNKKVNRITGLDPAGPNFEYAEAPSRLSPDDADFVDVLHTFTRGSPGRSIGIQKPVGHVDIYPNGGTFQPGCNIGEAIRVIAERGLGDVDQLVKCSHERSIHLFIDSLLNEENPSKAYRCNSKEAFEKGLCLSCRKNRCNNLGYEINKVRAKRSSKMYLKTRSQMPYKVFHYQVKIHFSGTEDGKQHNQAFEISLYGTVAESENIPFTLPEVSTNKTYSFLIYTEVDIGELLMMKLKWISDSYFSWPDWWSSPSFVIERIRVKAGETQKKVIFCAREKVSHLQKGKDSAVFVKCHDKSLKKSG

B1: mouse lipoprotein lipase (LPL), recombinant, purified (enzyme)
chain: ADAGRDFSDIESKFALRTPEDTAEDTCHLIPGLADSVSNCHFNHSSKTFVVIHGWTVTGMYESWVPKLVAALYKREPDSNVIVVDWLYRAQQHYPVSAGYTKLVGNDVARFINWMEEEFNYPLDNVHLLGYSLGAHAAGVAGSLTNKKVNRITGLDPAGPNFEYAEAPSRLSPDDADFVDVLHTFTRGSPGRSIGIQKPVGHVDIYPNGGTFQPGCNIGEAIRVIAERGLGDVDQLVKCSHERSIHLFIDSLLNEENPSKAYRCNSKEAFEKGLCLSCRKNRCNNLGYEINKVRAKRSSKMYLKTRSQMPYKVFHYQVKIHFSGTEDGKQHNQAFEISLYGTVAESENIPFTLPEVSTNKTYSFLIYTEVDIGELLMMKLKWISDSYFSWPDWWSSPSFVIERIRVKAGETQKKVIFCAREKVSHLQKGKDSAVFVKCHDKSLKKSG

Tests used:
[1] = biological target: T1, soluble mouse S-GPIHBP1 (acidic stretch …); assay: SPR; 750 mM NaCl
[2] = biological target: T1, soluble mouse S-GPIHBP1 (acidic stretch …); assay: SPR; LPL bound to heparin DP4, 150 mM NaCl
[3] = biological target: T1, soluble mouse S-GPIHBP1 (acidic stretch …); assay: SPR; 150 mM NaCl
[4] = biological target: T1, soluble mouse S-GPIHBP1 (acidic stretch …); assay: SPR; 750 mM NaCl; remark: listed apart in the source
[5] = biological target: T1, soluble mouse S-GPIHBP1 (acidic stretch …); assay: SPR; LPL bound to heparin DP4, 150 mM NaCl; remark: listed apart in the source
[6] = biological target: T1, soluble mouse S-GPIHBP1 (acidic stretch …); assay: SPR; 150 mM NaCl; remark: listed apart in the source
[7] = biological target: B1; assay: SPR; 750 mM NaCl
[8] = biological target: T2, mouse lipoprotein lipase (LPL), …; assay: SPR; Biacore T200; mouse LPL captured on the chip with immobilised antibody 27A; WT-GPIHBP1 (0.25-4 nM) or S-GPIHBP1 (2-32 nM) injected, single-cycle kinetics, 50 μL/min, 20°C; 10 mM HEPES pH 7.4, 150 mM NaCl, 4 mM CaCl2, 0.05% P20, 0.2 mg/mL BSA; conditions: both partners purified
[9] = biological target: B1; assay: SPR; 150 mM NaCl
[10] = biological target: B1; assay: SPR; 750 mM NaCl
[11] = biological target: B1; assay: SPR; 150 mM NaCl

koff [1] [s⁻¹] | Kd [2] [nM] | Kd [3] [nM] | Kd [4] [nM] | koff [5] [s⁻¹] | koff [6] [s⁻¹] | koff [7] [s⁻¹] | binding result [8] | Kd [9] [nM] | Kd [10] [nM] | koff [11] [s⁻¹] | Binder
0.0495 | 290 | 107 | 183 | 0.0211 | 0.0167 | – | – | – | – | – | B1
– | – | – | – | – | – | 0.0143 | binds | 0.93 | 20 | 0.0125 | soluble WT mouse GPIHBP1 (residues 23-198) (domain or fragment, UniProt Q9D1N2 23-198, looked up, sulfated tyrosines in the acidic domain (Tyr35, Tyr37): one half of the molecules contained 2 sulfated tyrosines, the other half only 1, lacks the carboxyl-terminal signal peptide that triggers the addition of a GPI anchor; Homogeneous and monodisperse preparation after removal of low levels of oligomers by SEC; also called WT-GPIHBP1; purified WT-GPIHBP1) QEDGDADPEPENYNYDDDDDEEEEEETNMIPGSRDRAPLQCYFCQVLHSGESCNQTQSCSSSKPFCITLVSHSGTDKGYLTTYSMWCTDTCQPIIKTVGGTQMTQTCCQSTLCNIPPWQNPQVQNPLGGRADSPLESGTRHPQGGKFSHPQVVKAAHPQSDGANLPKSGKANQPQG

From paper PMC8884915, “Electrostatic sheathing of lipoprotein lipase is essential for its movement across capillary endothelial cells” (The Journal of Clinical Investigation, 2022)
